Assay results published in patent US7556938B1, “Nucleic acids encoding potassium channel interactors” (Millennium Pharmaceuticals, Inc., priority 1998, dated 2009).

T1: rKv4.2 (Rattus norvegicus, UniProt Q63881)
T1 construct: expressed in transfected cells; host or cells: CHO cells, transient transfection with GFP co-transfected
T1 sequence (Q63881 1-630): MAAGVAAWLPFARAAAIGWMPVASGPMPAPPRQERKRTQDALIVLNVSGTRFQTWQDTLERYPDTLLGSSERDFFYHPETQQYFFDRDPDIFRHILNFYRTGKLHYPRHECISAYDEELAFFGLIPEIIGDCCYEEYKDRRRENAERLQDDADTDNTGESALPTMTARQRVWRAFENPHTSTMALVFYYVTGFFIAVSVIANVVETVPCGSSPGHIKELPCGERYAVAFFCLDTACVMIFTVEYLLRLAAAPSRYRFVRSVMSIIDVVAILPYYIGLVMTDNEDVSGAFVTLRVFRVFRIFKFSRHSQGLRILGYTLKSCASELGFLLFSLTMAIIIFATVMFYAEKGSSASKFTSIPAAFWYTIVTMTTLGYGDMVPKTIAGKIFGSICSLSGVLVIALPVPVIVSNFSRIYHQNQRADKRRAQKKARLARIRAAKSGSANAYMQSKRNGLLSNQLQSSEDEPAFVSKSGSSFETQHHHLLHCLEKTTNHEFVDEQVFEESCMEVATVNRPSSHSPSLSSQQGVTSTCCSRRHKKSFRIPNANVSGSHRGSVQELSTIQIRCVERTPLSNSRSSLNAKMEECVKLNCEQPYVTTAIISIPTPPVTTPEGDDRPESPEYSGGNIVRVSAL

T2: rKv4.3N (Rattus norvegicus, UniProt Q62897)
T2 construct: expressed in transfected cells; host or cells: yeast HF7c (bait), mated with Y187 (fish)
T2 sequence (Q62897 1-180): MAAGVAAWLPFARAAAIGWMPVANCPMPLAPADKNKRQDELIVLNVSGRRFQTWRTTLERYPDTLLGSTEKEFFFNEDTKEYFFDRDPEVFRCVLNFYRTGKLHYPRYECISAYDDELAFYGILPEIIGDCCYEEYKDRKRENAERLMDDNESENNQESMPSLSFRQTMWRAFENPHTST

T3: rKv4.2N (Rattus norvegicus, UniProt Q63881)
T3 construct: the N-terminal domains of Kv4.3, Kv4.2 were expressed as “baits” (Kv4.3N, Kv4.2N, respectively); expressed in transfected cells; host or cells: yeast HF7c (baits), mated with Y187 (fish)
T3 sequence (Q63881 1-184 limits assumed): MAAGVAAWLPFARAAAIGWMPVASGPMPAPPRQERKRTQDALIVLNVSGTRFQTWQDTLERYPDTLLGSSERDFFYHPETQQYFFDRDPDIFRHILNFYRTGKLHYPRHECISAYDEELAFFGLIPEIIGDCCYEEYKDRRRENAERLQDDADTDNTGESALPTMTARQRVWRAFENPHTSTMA

B1: KChIP1 ΔN2-31: N-terminal truncation mutant of KChIP1, reduced to the C-terminal 185 amino acid core sequence (protein)
chain: MLCSSLKLLHYLGLIDLSDDKIEDDLEMTMVCHRPEGLEQLEAQTNFTKRELQVLYRGFKNECPSGVVNEETFKQIYAQFFPHGDASTYAHYLFNAFDTTQTGSVKFEDFVTALSILLRGTVHEKLRWTFNLYDINKDGYINKEEMMDIVKAIYDMMGKYTYPVLKEDTPRQHVDVFFQKMDKNKD
B2: Rat 33b07: PCIP of 407 amino acid residues, homologous to SET and Nucleosome Assembly Proteins (protein)
chain: MNGVEGNNELPLANTSTSALVPEDLDLKQDQPLSEETDTVREMEAAGEAGAEGGASPDSEHCDPQLCLRVAENGCAAAAGEGLEDGLSSSKCGDAPLASVAANDSNKNGCQLAGPLSPAKPKTLEASGAVGLGSQMMPGPKKTKVMTTKGAISATTGKEGEAGAAMQEKKGVQKEKKAAGGGKDETRPRAPKINNCMDSLEAIDQELSNVNAQADRAFLQLERKFGRMRRLHMQRRSFIIQNIPGFWVTAFRNHPQLSPMISGQDEDMMRYMINLEVEELKHPRAGCKFKFIFQSNPYFRNEGLVKEYERRSSGRVVSLSTPIRWHRGQEPQAHIHRNREGNTIPSFFNWFSDHSLLEFDRIAEIIKGELWSNPLQYYLMGDGPRRGVRVPPRQPVESPRSFRFQSG
B3: Rat 5p: identical to rat Calpactin I light chain or P10 (protein)
chain: MPSQMEHAMETMMLTFHRFAGEKNYLTKEDLRVLMEREFPGFLENQKDPLAVDKIMKDLDQCRDGKVGFQSFLSLVAGLIIACNDYFVVHMKQKK
B4: Rat 29x: identical at the amino acid level to rat SOCS-1 (Suppressor Of Cytokine Signaling) (protein)
chain: ARLPAPEHARQQPLLSGPEPGSSARVPVPGVASRRQPRGGKPPSGDGLESGPSPRPLLHARGEAGLHRQSGRVPHTGTAYFADEPTEAQAPGGFCVSPSLLGVRWPACATRTPGSLPLSPPSAQPRTLWPTPPAGPSSRMVARNQVAADNAISPASEPRRRPEPSSSSSSSSPAAPARPRPCPVVPAPAPGDTHFRTFRSHSDYRRITRTSALLDACGFYWGPLSVHGAHERLRAEPVGTFLVRDSRQRNCFFALSVKMASGPTSIRVHFQAGRFHLDGSRETFDCLFELLEHYVAAPRRMLGAPLRQRRVRPLQELCRQRIVAAVGRENLARIPLNPVLRDYLSSFPFQI
B5: Rat 1p: partial rat PCIP of 267 amino acid residues, similar to human Restin (protein)
chain: LKGARPRVVNSTCSDFNHGSALHIAASNLCLGAAKCLLEHGANPALRNRKGQVPAEVVPDPMDMSLDKAEAALVAKELRTLLEEAVPLSCTLPKVTLPNYDNVPGNLMLSALGLRLGDRVLLDGQKTGTLRFCGTTEFASGQWVGVELDEPEGKNDGSVGGVRYFICPPKQGLFASVSKVSKAVDAPPSSVTSTPRTPRMDFSRVTGKGRREHKGKKKSPSSPSLGSLQQREGAKAEVGDQVLVAGQNRDCAFLWEDRLCSRLLVWH
B6: Rat 7s: rat ortholog of the human vacuolar H(+)-ATPase catalytic subunit A (partial) (protein)
chain: ADSTSRWAEALREISGRLAEMPADSGYPAYLGARLASFYERAGRVKCLGNPEREGSVSIVGAVSPPGGDFSDPVTSATLGIVQVFWGLDKKLAQRKHFPSVNWLISYSKYMRALDEYYDKHFTEFVPLRTKAKEILQEEEDLAEIVQLVGKASLAETDKITLEVAKLIKDDFLQQNGYTPYDRFCPFYKTVGMLSNMISFYDMARRAVETTAQSDNKITWSIIREHMGEILYKLSSMKFKDPVKDGEAKIKADYAQLLEDMQNAFRSLED

What follows are molecules tested against T1, rKv4.2 (assay: Patch-clamp of Kv4.2 currents in CHO cells coexpressing KChIPs). Details: coexpressed with Kv4.2.
Type: cell-based
Method: HEK 293 and CHO cells were used for recordings 1-3 days after a transient transfection. Whole-cell currents were recorded from cells expressing GFP, identified by their green fluorescence. […] After Gigaseal and ruptured whole-cell configuration access, resistance was less than 10 MOhms. Whole-cell bath solutions were made from a 10× Hank's balanced salt solution (GibcoBRL) with the following final concentration (in mM): 138 NaCl, 5.4 KCl, 1.3 MgCl2, 1.3 CaCl2, 5.5 D-Glukos and 10 HEPES, pH 7.4. The intracellular electrode solution consisted of (in mM) 140 KCl, 10 HEPES, 10 EGTA, 0.5 MgCl2, pH 7.3. All chemicals were from Sigma (St. Louis, Mo.) or Fisher Scientific (Houston, Tex.). Membrane currents were recorded using a EPC9 patch-clamp amplifier (HEKA, Germany). Data were analyzed using Matlab (Natick, Ma), and leak subtracted if necessary. All experiments were done at room temperature.
Because PCIPs, e.g., KChIP1 (1v), KChIP2 (9ql), and KChIP3 (p19), colocalize and coassociate with Kv4 α-subunits in brain, another critical question was to determine whether these PCIPs alter the conductance properties of Kv4 channels. To address this issue, Kv4.2 and Kv4.3 were expressed alone and in combination with individual PCIPs. CHO cells were transiently-transfected with cDNA using the DOTAP lipofection method as described by the manufacturer (Boehringer Mannheim, Inc.). Transfected cells were identified by cotransfecting enhanced GFP along with the genes of interest and subsequently determining if the cells contained green GFP fluorescence. Currents in CHO cells were measured using the patch-clamp technique (Hamill et al. 1981. Pfluegers Arch. 391: 85-100).
First, the amplitude of the Kv4.2 current increased approximately 7.5 fold in the presence of KChIP1 (amplitude of Kv4.2 alone=0.60+/−0.096 nA/cell; Kv4.2+KChIP1=4.5+/−0.55 nA/cell). […] Finally, the kinetics of Kv4.2 inactivation slowed considerably when Kv4.2 was coexpressed with KChIP1 (inactivation time constant of Kv4.2 alone=28.2+/−2.6 ms; Kv4.2+KChIP1=104.1+/−10.4 ms), while channels recovered from inactivation much more rapidly in cells expressing both Kv4.2 and KChIP1 (recovery tau=53.6+/−7.6 ms) versus cells expressing Kv4.2 alone (recovery tau=272.2+/−26.1 ms).

Molecule | effects on Kv4.2 current density and kinetics
B1 | indistinguishable from the effects produced by full-length KChIP1 or KChIP2

Same assay, conditions: rKv4.2 coexpressed with the KChIP, at 50 mV

Inactivation time constant (ms, at 50 mV) | Molecule
129.2 ± 14.2 ms | B1

Each molecule was assayed against T2, rKv4.3N (assay: Yeast two-hybrid binding and specificity test, Kv4.3 N-terminal bait). Details: not given.
Method: The first 180 amino acids of rKv4.3 (described in Serdio P. et al. (1996) J. Neurophys 75:2174-2179) were amplified by PCR and cloned in frame into pGBT9 resulting in plasmid pFWA2, (hereinafter “bait”). This bait was transformed into the two-hybrid screening strain HF7c and tested for expression and self-activation. The bait was validated for expression by Western blotting.
(§1) Two-hybrid screens were carried out essentially as described in Bartel, P. et al. (1993) “Using the Two-Hybrid System to Detect Polypeptide-Polypeptide Interactions” in Cellular Interactions in Development: A Practical Approach, Hartley, D. A. ed. Oxford University Press, Oxford, pp. 153-179, with a bait-library pair of rkv4.3 bait-rat mid brain library. A filter disk beta-galactosidase (beta-gal) assay was performed essentially as previously described (Brill et al. (1994) Mol. Biol. Cell. 5:297-312). Clones that were positive for both reporter gene activity (His and beta-galactosidase) were scored and fish, plasmids were isolated from yeast, transformed into E. coli strain KC8, DNA plasmids were purified and the resulting plasmids were sequenced by conventional methods (Sanger F. et al. (1977) PNAS, 74: 5463-67).
(§2) Positive interactor clones were subjected to a binding specificity test where they were exposed to a panel of related and unrelated baits by a mating scheme previously described (Finley R. L. Jr. et al. (1994) PNAS, 91(26):12980-12984). Briefly, positive fish plasmids were transformed into Y187 and the panel of baits were transformed into HF7c. Transformed fish and bait cells were streaked out as stripes on selective medium plates, mated on YPAD plates, and tested for reporter gene activity.

binding to rKv4.3N in yeast two-hybrid assay | Molecule
binds | B2
binds | B3
binds | B4
binds | B5
binds | B6

Same assay, conditions: rKv4.3N versus rKv4.2N

preference between rKv4.3N and rKv4.2N in yeast two-hybrid assay | Molecule
slight preference for rKv4.2N | B2
slight preference for rKv4.3N | B4
slight preference for rKv4.3N | B5
preference for rKv4.3N | B6

Each molecule was assayed against T4, rKv1.1N (Rattus norvegicus, UniProt P10499) (assay: Yeast two-hybrid binding and specificity test, Kv1.1 N-terminal bait). Details: not given.
T4 construct: expressed in transfected cells; host or cells: yeast HF7c (baits), mated with Y187 (fish)
Method: as §1, §2

T4 sequence (P10499 1-164 limits assumed): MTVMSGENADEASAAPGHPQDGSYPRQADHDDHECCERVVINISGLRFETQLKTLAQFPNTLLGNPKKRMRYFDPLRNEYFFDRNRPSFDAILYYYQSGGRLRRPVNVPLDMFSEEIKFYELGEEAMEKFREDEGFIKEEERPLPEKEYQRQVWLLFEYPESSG

binding to rKv1.1N in yeast two-hybrid assay | Molecule
does not bind | B2
does not bind | B3
does not bind | B4
does not bind | B5
does not bind | B6

The molecules below were run against T3, rKv4.2N (assay: Yeast two-hybrid binding and specificity test, Kv4.2 N-terminal bait). Details: not given.
Method: as §1, §2

binding to rKv4.2N in yeast two-hybrid assay | Molecule
binds | B2
binds | B3
binds | B4
binds | B5
binds | B6
